Assay results published in patent publication US20210261643A1, “INHIBITORS OF P-TEFB MEDIATED TRANSCRIPTION” (The Regents of the University of California, priority 2018, published 2021).

Key:
[1] = system: HIV reactivation in J-Lat 9.2 cells; experiment: HIV reactivation in J-Lat 9.2 latent infection model, FACS of GFP positive cells; assay type: cell-based; conditions: J-Lat 9.2 cells, PMA 100 nM
Excerpt: FIGS. 4A and 4B. Stable expression of HT1 inhibits HIV reactivation. FIG. 4A: Stable expression of HT1 inhibits HIV reactivation from 2D10 cells. 3f:HT1 was stably expressed in 2D10 cells (D-HT cells). […] Error bars represent standard deviation from triplicate FACS analysis. FIG. 4B: Stable expression of HT1 inhibits HIV reactivation from J-Lat 9.2 cells. 3f:HT1 was stably expressed in J-Lat 9.2 cells (L-HT cells). […] Error bars represent standard deviation from triplicate FACS analysis.
To test the effect of HT1 on HIV-1 in T-lymphocyte derived cells, 3f:HT1 was stably expressed in HIV latent infection models 2D10 and J-Lat 9.2 cells (D-HT and L-HT cells respectively), which carry replication-defective, GFP-flagged HIV proviruses. In both 2D10 and J-Lat 9.2, the basal HIV transcription level is undetectable, as measured through GFP expression. Compounds such as the PKC agonist PMA, the histone deacetylase inhibitor SAHA or the BET bromodomain inhibitor JQ1 reactivate HIV transcription and increase GFP-positive cells detected by FACS analysis. 2D10 cells are more sensitive to HIV reactivation than J-Lat 9.2 cells, though they harbor a mutation in the N-terminal sequence of Tat (H13L). 2D10 and D-HT cells were incubated for 24 hrs with PMA (10 nM), SAHA (5 μM) or JQ1 (1 μM) and GFP positive cells were detected by FACS analysis. […]

[2] = system: Tat-dependent gene expression from the HIV promoter; experiment: Luciferase reporter assay, pLTR-Luc co-transfected with pTat and pHT in 293T cells; assay type: cell-based
Excerpt: FIGS. 2A, 2B, and 2C. A HEXIM1-Tat fusion peptide inhibits gene expression from the HIV promoter. FIG. 2A. Structure of the HEXIM1-Tat fusion peptides used in the study. The functional domains used from HEXIM1 and Tat include a HEXIM1 Arginine Rich Motif (ARM, black box, residues 150-162) that binds RNA, a HEXIM1 inhibitory domain (ID, light grey box, residues 200-211) that inhibits CDK9 through a PYNT motif, and Tat transactivation domain (AD, dark grey box, residues 1-48) that binds to P-TEFb. The conceptual schemes are not drawn to scale. FIG. 2B. Transient expression of HT1 inhibits Tat-induced LTR-driven Luc expression. Upper panel: a schema depicts the reporter assay. A luciferase reporter gene (Luc) is under the control of the HIV promoter (P-HIV) and can be activated by ectopically expressed Tat. The Luc assay was used to titrate the inhibitory effect of HT1-3 on P-HIV transactivation by Tat. Middle panel: increasing amounts of m:HT1, m:HT2 or m:HT3 expressing plasmid (pHT) were co-transfected in 293T cells with a plasmid (pTat) expressing f:Tat and another (pLTR-Luc) expressing Luc under the control of the HIV promoter. Luc activity was plotted as % activity relative to control (empty vector used instead of pHT), depending on the transfected pHT:pTat ratio. Error bars in the graph represent standard deviation from triplicate experiments. FIG. 2C. Transient expression of HT1 inhibits Luc expression from HIV-1 NL43ΔenvLuc. Top schema depicts the reporter assay. A luciferase reporter gene (Luc) is inserted in a replication-defective HIV-1 molecular clone (pNL43ΔenvLuc) in which Luc and Tat are under the control of the HIV promoter (P-HIV). A Luc assay was used to titrate the inhibitory effect of HT1-3 on P-HIV transactivation by Tat. Bottom: increasing amounts of pHT1 were co-transfected in 293T cells with pNL43ΔenvLuc. Luc activity was plotted as % activity relative to control (empty vector used instead of pHT), depending on the transfected amounts of pHT1. Error bars in the graph represent standard deviation from triplicate experiments.
Luciferase (Luc) reporter assays were performed to titrate the potency of each chimera to inhibit Tat-dependent gene expression from the HIV promoter. Effector plasmids included pHT1-3 and pTat, which respectively expressed a Myc-epitope tag chimera (m:HT1-3) and a Flag-epitope tagged Tat (f:Tat). pHT1, pHT2 or pHT3 was transiently co-transfected in 293T cells with pTat and a Luc reporter gene under the control of the HIV promoter (P-HIV, expressed from the plasmid pLTR-Luc). […] Finally, HT1 lead to a 4-fold decrease in Luc expression at a 2:1 ratio. […] Similar results were obtained when co-transfecting pHT1-3 and pTat in NIH1 cells, which stably carry an LTR-Luc reporter gene. Thus, we selected HT1 for further investigation.

[3] = target: positive transcription elongation factor B (UniProt O60563 1-726; P50750 1-372); experiment: cell-based or functional assay
Sequence of positive transcription elongation factor B (O60563 whole entry, chain 1 of 2): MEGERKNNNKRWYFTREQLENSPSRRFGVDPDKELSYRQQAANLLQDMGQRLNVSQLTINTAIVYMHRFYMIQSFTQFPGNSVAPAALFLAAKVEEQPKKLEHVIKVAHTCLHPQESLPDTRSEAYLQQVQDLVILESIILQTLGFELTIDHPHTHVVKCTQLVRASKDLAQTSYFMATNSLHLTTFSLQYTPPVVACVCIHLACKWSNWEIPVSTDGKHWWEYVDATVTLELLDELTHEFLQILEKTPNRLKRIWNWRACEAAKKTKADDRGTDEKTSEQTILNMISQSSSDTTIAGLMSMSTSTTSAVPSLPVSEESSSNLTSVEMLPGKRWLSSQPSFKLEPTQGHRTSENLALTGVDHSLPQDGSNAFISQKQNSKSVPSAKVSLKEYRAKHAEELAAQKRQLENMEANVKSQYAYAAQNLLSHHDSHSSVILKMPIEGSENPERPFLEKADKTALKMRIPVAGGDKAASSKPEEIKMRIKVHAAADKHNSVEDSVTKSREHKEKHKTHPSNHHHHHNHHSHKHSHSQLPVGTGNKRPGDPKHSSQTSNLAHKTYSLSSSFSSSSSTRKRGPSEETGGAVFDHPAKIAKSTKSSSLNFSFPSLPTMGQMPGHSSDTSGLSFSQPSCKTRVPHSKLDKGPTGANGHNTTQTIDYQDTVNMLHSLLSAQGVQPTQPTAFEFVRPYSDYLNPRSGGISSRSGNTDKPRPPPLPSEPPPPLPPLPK
Sequence of positive transcription elongation factor B (P50750 whole entry, chain 2 of 2): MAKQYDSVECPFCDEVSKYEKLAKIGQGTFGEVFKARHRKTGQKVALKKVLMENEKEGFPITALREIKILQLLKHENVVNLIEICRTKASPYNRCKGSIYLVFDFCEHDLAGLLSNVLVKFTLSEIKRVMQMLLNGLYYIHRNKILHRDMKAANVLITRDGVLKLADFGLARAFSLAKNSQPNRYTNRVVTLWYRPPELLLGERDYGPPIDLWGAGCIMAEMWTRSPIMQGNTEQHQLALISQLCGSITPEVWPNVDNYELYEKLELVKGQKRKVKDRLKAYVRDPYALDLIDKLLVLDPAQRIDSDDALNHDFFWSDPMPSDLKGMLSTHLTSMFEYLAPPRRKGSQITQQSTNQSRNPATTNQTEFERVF

HIV TAR RNA = experiment: RNA immunoprecipitation and RT-qPCR with TAR-specific primers in 293T cells; assay type: binding; conditions: 293T cells, anti-Myc Ab, RT-qPCR
Method: FIGS. 3A, 3B, 3C and 3D. HT1 prevents Tat from bringing active P-TEFb to TAR. FIG. 3A: HT1 inhibits the kinase activity of P-TEFb subunit CDK9. m:HT1 and/or f:Tat were transiently expressed in 293T cells. Cell lysates were used for IP using anti-Myc Ab (lanes 2-4), or control IgG (lane 1). Immunoprecipitates were incubated with ATP and recombinant GST-CTD proteins for in vitro kinase assay. Six replicate experiments were performed, and mean relative kinase activities are shown in the bar graph to the right. FIG. 3B: HT1 binds to TAR. m:HT1 or m:Tat (or empty vector, EV, as a control) was transiently co-expressed with TAR RNA-expressing pU16TAR in 293T cells. Cell lysates were used for IP using anti-Myc Ab or control IgG. RNA was purified from the immunoprecipitates and submitted to RT-qPCR using TAR-specific primers. Relative TAR enrichment was calculated as qPCR count using anti-Myc Ab minus using IgG, and normalized to EV. Error bars represent standard deviation from triplicate qPCR assays. […] Error bars represent standard deviation from triplicate qPCR assays. FIG. 3D: HT1 competes with Tat for TAR binding. m:HT1 and/or f:Tat were transiently co-expressed with TAR RNA-expressing pU16TAR in 293T cells. Cell lysates were used for IP using anti-Myc Ab or control IgG. RNA was purified from the immunoprecipitates and submitted to RT-qPCR using TAR-specific primers (upper panel). Relative TAR enrichment was calculated as qPCR count using anti-Myc Ab minus using IgG, and normalized to EV. Error bars represent standard deviation from triplicate qPCR assays.
Finally, since HEXIM1 ARM resembles the TAR-binding domain from Tat, we investigated whether HT1 could bind to HIV TAR. m:HT1 or m:Tat was co-expressed in 293T cells with TAR RNA, expressed under RNA Polymerase III dependent H1 promoter, and immunoprecipitated using anti-Myc Ab or IgG as a control. TAR RNAs co-immunoprecipitated with HT1 or Tat were quantified by RT-qPCR analysis. […] To test whether HT1 affects Tat-TAR interactions, increasing amounts of m:HT1 were also co-expressed with a fixed amount of f:Tat and TAR. […] As expected, HT1 also bound to endogenous 7SK snRNA.

CCCCCCCCCCCCCC(=O)O[C@@H]1[C@@H](C)[C@@]2(O)[C@@H](C=C(CO)C[C@]3(O)C(=O)C(C)=C[C@@H]23)[C@@H]2C(C)(C)[C@]12OC(C)=O [PMA, reference compound]
increase in GFP expression [1]: 12%

B1: THT: fusion protein of TAT ARM, HEXIM CDK9 inhibitory domain and TAT P-TEFb-binding domain (protein)
chain: MEQKLISEEDLRKKRRQRRRAPPGGGGSRIRAEMFAKGQPVAPYNTTQFLMDDHDQEEPDLVDMEPVDPYLEPWKHPGSQPRTACNNCYCKKCCFHCYACFTRKGLGISYG
inhibition of HIV transcription in luciferase assays (in words) ([2]; luciferase assays performed as in Example 1): potently inhibited

B2: Myc-epitope tagged HEXIM1-Tat chimera HT1 (designed binder)
chain: KKKHRRRPSKKKRHWKPYYKLTWEEKKKFDEKQSLRASRIRAEMFAKGQPVAPYNTTQFLMDDHDQEEPDLVDMEPVDPYLEPWKHPGSQPRTACNNCYCKKCCFHCYACFTRKGLGISYG
fold decrease in relative kinase activity (CTD-P band intensity normalized with CDK9), in vitro kinase assay on immunoprecipitates with ATP and GST-CTD [3]: 3.1 fold

B3: HT3 (protein)
chain: FDEKQSLRASRIRAEMFAKGQPVAPYNTTQFLMDDHDQEEPDLVDMEPVDPYLEPWKHPGSQPRTACNNCYCKKCCFHCYACFTRKGLGISYG
decrease in Luc expression from the HIV promoter ([2]; 293T cells, pHT:pTat ratio 2:1): ≤ 2 fold | immunoprecipitation of TAR RNA (in words) (HIV TAR RNA): failed to bind TAR

B4: HT2 (protein)
chain: KKKHRRRPSKKKRHWKPYYKLTWEEKKKVDMEPVDPYLEPWKHPGSQPRTACNNCYCKKCCFHCYACFTRKGLGISYG
inhibition of Luc expression from the HIV promoter (in words) ([2]; 293T cells, ratio of pHT2 to pTat 2:1): failed to inhibit
